Numbering of substitutions follows the chain as printed.
Key:
[1] = biological target: T1, rhIL-1RAcP/Fc Chimera (human, UniProt Q9NPH3 21-359); assay: ELISA, primary supernatant, coated hu-IL-1RAcP-Fc
T1 construct: also called P013_03; P013-03
T1 sequence (looked up): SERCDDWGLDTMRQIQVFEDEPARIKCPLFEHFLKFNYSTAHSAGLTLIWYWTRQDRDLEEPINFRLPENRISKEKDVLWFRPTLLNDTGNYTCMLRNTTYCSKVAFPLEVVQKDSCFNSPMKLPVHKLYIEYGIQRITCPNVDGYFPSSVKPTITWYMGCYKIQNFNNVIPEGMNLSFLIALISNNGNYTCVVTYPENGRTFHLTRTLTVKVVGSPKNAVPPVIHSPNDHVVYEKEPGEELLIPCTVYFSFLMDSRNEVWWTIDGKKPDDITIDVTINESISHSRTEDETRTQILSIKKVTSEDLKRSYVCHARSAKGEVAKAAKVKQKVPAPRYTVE
From the text: Microtiter plates were coated IL-1RACP and/or IL12Rβ1 protein (recombinant Fc chimeric conjugates of human IL-1RACP or IL12Rβ1). After a blocking process, specific antibodies from B-cell supernatants bind to the targets and are then detected by a POD-labeled anti-rabbit IgG antibody. The IL12Rβ1 binding was used as a counterscreen. IL-1RACP protein was tagged with a linker, huFc and His like the IL12Rβ1 protein. Antibodies which bind to the tag were positive in both assays, whereas antigen specific antibodies just bound to IL-1RACP and not to IL12Rβ1.
12.5 μL 0.5 μg/mL IL-1RACP protein in PBS was transferred to a microtiter plate, incubated and washed 3× with Wash Buffer. 90 μL Block Buffer was added to each well, incubated and washed. 12.5 μl Standard Antibody (rabbit mAb against IL-1RAcP, anti IL12Rbeta1 antibody: IL-12Rbeta1 antibody; GeneTex; Cat. No. GTX103917) or sample diluted in ELISA buffer was added, incubated and washed. 12.5 μl 1:5000 POD-Antibody (Anti-rabbit IgG, peroxidase-linked species-specific Fab2 fragment (from donkey) (ECL); assay dilution: 1:5000) in Elisa Buffer was added, incubated and washed. 15 μl TMB was added and 15 μl HCl was added after sufficient development. Absorbance (Optical Density O.D.) was read at 450 nm/620 nm.

[2] = biological target: T2, human IL-1RAcP on 293T/17-FR cells (human, UniProt Q9NPH3 21-570); assay: cell-based or functional assay
T2 sequence (looked up): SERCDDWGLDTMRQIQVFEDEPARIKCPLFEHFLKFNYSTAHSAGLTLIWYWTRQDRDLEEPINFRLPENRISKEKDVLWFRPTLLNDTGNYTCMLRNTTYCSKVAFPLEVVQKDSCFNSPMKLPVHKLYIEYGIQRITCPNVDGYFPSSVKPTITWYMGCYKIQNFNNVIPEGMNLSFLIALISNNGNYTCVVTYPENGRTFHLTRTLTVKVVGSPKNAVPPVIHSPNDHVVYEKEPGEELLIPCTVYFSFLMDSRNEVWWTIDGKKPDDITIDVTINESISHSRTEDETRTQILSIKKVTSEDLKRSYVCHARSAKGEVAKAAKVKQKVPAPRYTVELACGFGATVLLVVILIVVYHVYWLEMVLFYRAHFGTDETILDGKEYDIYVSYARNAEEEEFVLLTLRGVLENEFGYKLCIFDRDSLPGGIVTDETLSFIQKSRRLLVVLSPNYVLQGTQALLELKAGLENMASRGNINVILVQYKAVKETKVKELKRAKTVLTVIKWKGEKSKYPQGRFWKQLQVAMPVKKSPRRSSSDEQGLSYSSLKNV

[3] = biological target: T1, rhIL-1RAcP/Fc Chimera; assay: ELISA, recombinant purified mAb

B1: P013.S.01.B.D02 (antibody, V domains shown)
VH: LEQSGGGAEGGLVKPGGSLELCCKASGFSLTTNYWICWVRQAPGKGLEWIGCIYANSVGSTYYASWVNGRFTLSRDIDQSTGCLQLNSLTAADTAMYYCARVDPGYSFDAFDPWGPGTLVTVSS
VL: ALVMTQTPSPVSAAVGGTVTINCQASEDIYSNLAWFQQKPGQPPKLLIYRASTLASGVPSRFSGSGSGTEFTLTISALQSDDAATYYCLGVRTYFNTLNNSFGGGTEVVVK
notes: rabbit monoclonal antibody; also called P013.A.00022.E06
hu-IL1RaP ELISA (OD) [1]: 4 OD
functional reporter gene assay (% inhibition), 0.04 µg/mL mAb [2]: 44%
functional reporter gene assay (% inhibition), 0.2 µg/mL mAb [2]: 68%
functional reporter gene assay (% inhibition), 1 µg/mL mAb [2]: 88%
functional reporter gene assay (% inhibition), 5 µg/mL mAb [2]: 92%
primary supernatant functional assay (% inh.), NF-kB luciferase reporter [2]: 99%

B2: P013.S.01.B.D05 (antibody, V domains shown)
VH: EQSGGGAEGGLVKPGGSLELYCKASGFSLSSDAWICWVRQAPGKGLEWIGCIYAGSASNTYYATWVNGRFTLSRDIAQSTGCLQLNSLTAADTAMYYCARDRGYDDYGDITRLDLWGQGTLVTVSS
VL: B1 VL with M4L, A77G, R92Y, F95L, N96S, T97D, N99F, N100F, S101V
notes: rabbit monoclonal antibody; also called P013.A.00085.G03
hu-IL1RaP ELISA (OD) [1]: 3.4 OD
functional reporter gene assay (% inhibition), 0.04 µg/mL mAb [2]: 26%
functional reporter gene assay (% inhibition), 0.2 µg/mL mAb [2]: 66%
functional reporter gene assay (% inhibition), 1 µg/mL mAb [2]: 77%
functional reporter gene assay (% inhibition), 5 µg/mL mAb [2]: 62%
primary supernatant functional assay (% inh.), NF-kB luciferase reporter [2]: 93%

B3: P013.S.01.B.F03 (antibody, V domains shown)
VH: LEQSGGGAEGGLVKPGGSLELCCKASGFSLGSSYWICWVRQAPGKGLEWIGCIYAGSSGITYYASWVSGRFTLSRDIDQSTGCLQLNSLTAADTAMYYCARDIYASTSGYDLWGQGTLVTVSS
VL: ALVMTQTPSPVSAAVGGTVTINCQASEDIYSNLAWFQQKPGQPPKLLIYQASTLASGVPSRFSGSGSGTEFTLTISGLQSDDAAAYYCLGVCTYIGADNTLYNTFGGGTEVVVK
notes: rabbit monoclonal antibody; also called P013.A.00025.F02
hu-IL1RaP ELISA (OD) [1]: 3.4 OD
EC50 [3]: 0.44 µg/mL
functional reporter gene assay (% inhibition), 0.04 µg/mL mAb [2]: 26%
functional reporter gene assay (% inhibition), 0.2 µg/mL mAb [2]: 59%
functional reporter gene assay (% inhibition), 1 µg/mL mAb [2]: 87%
functional reporter gene assay (% inhibition), 5 µg/mL mAb [2]: 94%
primary supernatant functional assay (% inh.), NF-kB luciferase reporter [2]: 102%

B4: P013.S.02.B.G04 (antibody, V domains shown)
VH: QSLEESGGRLVTPGTPLTLTCTVSGFSLSRCAMIWVRQAPGKGLEWIGFIGRGGSTWYASWVNGRFTISKTSTTVDLKITSPTTEDTATYFCARDGDYSDYYTFDLWGQGTLVTVSS
VL: DVVMTQTPASVSERVGGTVTIKCQASQSIGSNLAWYQQKPGQPPKLLIYGASNLESGVPSRFSGSGSGTEFTLSISGVQSADAATYYCQCSGYDTTGVFPFGGGSEVVVK
notes: rabbit monoclonal antibody; also called P013.A.00015.A11
hu-IL1RaP ELISA (OD) [1]: 2.9 OD
functional reporter gene assay (% inhibition), 0.04 µg/mL mAb [2]: -1%
functional reporter gene assay (% inhibition), 0.2 µg/mL mAb [2]: 0%
functional reporter gene assay (% inhibition), 1 µg/mL mAb [2]: 4%
functional reporter gene assay (% inhibition), 5 µg/mL mAb [2]: -18%
primary supernatant functional assay (% inh.), NF-kB luciferase reporter [2]: 27%

B5: P013.S.01.B.F02 (antibody, V domains shown)
VH: QEQLVESGGGLVQPEGSLTLTCTASGFSFSSNYWMCWVRQAPGKGLEWIACIYTGGSGVTYYASWAKGRFTLSKTSSTTVTLQVTSLTAADTATYFCARDLVVVTSFNLWGQGTLVTVSS
VL: ALMMTQTPSPVSAAVGGTVTINCQASEDIYSNLAWYQQKPGQPPKLLIYSASTLASGVPSRFSGSGSGTEFTLTISGVQSDDAATYYCLGVCTDISVDDVYNSFGGGTEVVVK
notes: rabbit monoclonal antibody; also called P013.A.00043.D08
hu-IL1RaP ELISA (OD) [1]: 3.4 OD
functional reporter gene assay (% inhibition), 0.04 µg/mL mAb [2]: 45%
functional reporter gene assay (% inhibition), 0.2 µg/mL mAb [2]: 59%
functional reporter gene assay (% inhibition), 1 µg/mL mAb [2]: 80%
functional reporter gene assay (% inhibition), 5 µg/mL mAb [2]: 93%
primary supernatant functional assay (% inh.), NF-kB luciferase reporter [2]: 76%

B6: P013.S.02.B.C05 (antibody, V domains shown)
VH: QSLEESGGRLVTPGTPLTLSCTASGFSLSTYYMSWVRQAPGKGLEWIGYMHVGGFPVYASWAKGRFTISKTSTTVDLKITSPTIEDTATYFCARDFGPPNWTLDLWGQGTLVTVSS
VL: DVVMTQTPASVEAAVGGTVTIKCQASQSISSYCSWYQQKPGQPPKLLIYRASTLESGVPSRFKGSGSGTEFTLTISDLESADAATYYCQSSYYDLLGNGFGGGTEVVVK
notes: rabbit monoclonal antibody; also called P013.A.00085.F10
hu-IL1RaP ELISA (OD) [1]: 3.2 OD
functional reporter gene assay (% inhibition), 0.04 µg/mL mAb [2]: 7%
functional reporter gene assay (% inhibition), 0.2 µg/mL mAb [2]: 26%
functional reporter gene assay (% inhibition), 1 µg/mL mAb [2]: 35%
functional reporter gene assay (% inhibition), 5 µg/mL mAb [2]: 52%
primary supernatant functional assay (% inh.), NF-kB luciferase reporter [2]: 66%

B7: P013.S.01.B.G02 (antibody, V domains shown)
VH: QSVEESGGRLVTPGTPLTLTCTVSGFSLSSYYMSWVRQAPGKGLEWIGYIYAAGPITYYATWAKGRFTISKTSTTVDLKITSPTTEDTATYFCVRDGSGSGTYGYNGMDLWGPGTLVTVSS
VL: AYDMTQTPASVEAAVGGTVNIKCQASQSISNWLAWYQQKPGQRPKLLIYRASTLASGVSSRFKGSGSGTQFTLTISGVESADAATYYCQQGASTTDVDNVFGGGTEVVVK
notes: rabbit monoclonal antibody; also called P013.A.00085.B11
hu-IL1RaP ELISA (OD) [1]: 3.7 OD
EC50 [3]: 0.049 µg/mL
functional reporter gene assay (% inhibition), 0.04 µg/mL mAb [2]: 43%
functional reporter gene assay (% inhibition), 0.2 µg/mL mAb [2]: 52%
functional reporter gene assay (% inhibition), 1 µg/mL mAb [2]: 41%
functional reporter gene assay (% inhibition), 5 µg/mL mAb [2]: 72%
primary supernatant functional assay (% inh.), NF-kB luciferase reporter [2]: 71%

B8: P013.S.01.B.H03 (antibody, V domains shown)
VH: B7 VH
VL: B7 VL with R43P
notes: rabbit monoclonal antibody; also called P013.A.00045.A02
hu-IL1RaP ELISA (OD) [1]: 3.5 OD
EC50 [3]: 0.104 µg/mL
functional reporter gene assay (% inhibition), 0.04 µg/mL mAb [2]: 28%
functional reporter gene assay (% inhibition), 0.2 µg/mL mAb [2]: 49%
functional reporter gene assay (% inhibition), 1 µg/mL mAb [2]: 59%
functional reporter gene assay (% inhibition), 5 µg/mL mAb [2]: 60%
primary supernatant functional assay (% inh.), NF-kB luciferase reporter [2]: 43%

B9: P013.S.02.B.A01 (antibody, V domains shown)
VH: B7 VH
VL: B7 VL with N20T
notes: rabbit monoclonal antibody; also called P013.A.00087.A07
hu-IL1RaP ELISA (OD) [1]: 3.8 OD
EC50 [3]: 0.073 µg/mL
functional reporter gene assay (% inhibition), 0.04 µg/mL mAb [2]: 7%
functional reporter gene assay (% inhibition), 0.2 µg/mL mAb [2]: 45%
functional reporter gene assay (% inhibition), 1 µg/mL mAb [2]: 67%
functional reporter gene assay (% inhibition), 5 µg/mL mAb [2]: 87%
primary supernatant functional assay (% inh.), NF-kB luciferase reporter [2]: 67%

B10: P013.S.02.B.B01 (antibody, V domains shown)
VH: QSLEESGGRLVTPGTPLTLTCTVSGFSLSGYAMSWVRQAPGKGLEWIGIIYAGSGGTYYASWVKGRFTISKTSTTVDLKITSLTTEDTATYFCARAVPDDSAGKKLWGQGTLVTVSS
VL: DIVMTQTPASVEAAVGGTITINCQASENIYSSLAWYQQKPGQPPKLLIYDASTLASGVSSRFKGSGSGTQFTLTISGVQSDDAATYYCQSYYCSVSSSCGYGFGGGTEVVVK
notes: rabbit monoclonal antibody; also called P013.A.00088.A11
hu-IL1RaP ELISA (OD) [1]: 3.6 OD
functional reporter gene assay (% inhibition), 0.04 µg/mL mAb [2]: 24%
functional reporter gene assay (% inhibition), 0.2 µg/mL mAb [2]: 39%
functional reporter gene assay (% inhibition), 1 µg/mL mAb [2]: 75%
functional reporter gene assay (% inhibition), 5 µg/mL mAb [2]: 94%
primary supernatant functional assay (% inh.), NF-kB luciferase reporter [2]: 95%

B11: P013.S.01.B.G05 (antibody, V domains shown)
VH: LEQSGGGAEGGLVKPGGSLELCCKASGFSLSSAYWICWVRQAPGKGLEWVGCIYADSSSITYYASWVNGRFTLSRDIDQSTGCLQLNSLTAADTAMYYCARDYGGSGYNFNLWGQGTLVTVSS
VL: ALVMTQTPSPVSAAVGGTVTISCQASEDIYSNLAWYQQKRGQPPKLLIYYASTLASGVPSRFSGSGSGTEFTLTISGLQSDDAATYYCLGVCTYINANGWDNAFGGGTEVVVK
notes: rabbit monoclonal antibody; also called P013.A.00088.C10
hu-IL1RaP ELISA (OD) [1]: 3.3 OD
EC50 [3]: 0.817 µg/mL
functional reporter gene assay (% inhibition), 0.04 µg/mL mAb [2]: 21%
functional reporter gene assay (% inhibition), 0.2 µg/mL mAb [2]: 50%
functional reporter gene assay (% inhibition), 1 µg/mL mAb [2]: 82%
functional reporter gene assay (% inhibition), 5 µg/mL mAb [2]: 93%
primary supernatant functional assay (% inh.), NF-kB luciferase reporter [2]: 81%

— patent US20190106487A1 (Sanofi, published 2019)
